For 1 molecule, Kd results are on record in paper PMC6123713, “Adenylate kinase potentiates the capsular polysaccharide by modulating Cps2D in Streptococcus pneumoniae D39” (Experimental & Molecular Medicine, 2018).

The target of one assay is T1, His6-Cps2D wild-type (Streptococcus pneumoniae type 2 (D39), UniProt Q9ZII6 1-226).
T1 construct: autophosphorylating tyrosine kinase Cps2D of Streptococcus pneumoniae type 2 (D39), approximately 226 amino acids; also called Cps2D WT; pCPS03; source: recombinant, purified to homogeneity; plasmid pCPS03 (E. coli plasmid pHis-parallel 2); cloning and purification in the Supplementary Information
T1 sequence: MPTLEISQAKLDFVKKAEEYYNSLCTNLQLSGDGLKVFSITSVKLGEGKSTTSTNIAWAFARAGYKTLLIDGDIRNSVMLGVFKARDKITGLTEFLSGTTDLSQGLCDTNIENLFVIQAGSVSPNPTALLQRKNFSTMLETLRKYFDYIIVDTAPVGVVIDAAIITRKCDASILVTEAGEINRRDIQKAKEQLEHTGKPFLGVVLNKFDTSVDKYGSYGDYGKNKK
The assay is described as follows: BLI; Blitz system; His6-Cps2D protein (1 μM) immobilised on Ni-NTA sensors; GST-SpAdK 2.5-50 μM; buffer D (250 mM NaCl, 50 mM Tris-HCl, pH 7.5, 1 mM DTT) with 5 mM Mg-ATP; GST and sensor background subtracted; steady-state analysis; apparent Kd. The settings on record: both partners purified. Background: Biolayer interferometry detects binding as a change in optical thickness at a sensor tip.

Assay [1] addresses T2, His6-Cps2D 3Y3E (Y215E/Y218E/Y221E) (Streptococcus pneumoniae type 2 (D39), UniProt Q9ZII6 1-226, Y215E | Y218E | Y221E).
T2 construct: tyrosine kinase Cps2D of Streptococcus pneumoniae type 2 (D39), triple phosphomimetic mutant of the C-terminal tyrosine cluster; also called pCPS04; source: recombinant, purified to homogeneity; plasmid pCPS04 (E. coli plasmid pHis-parallel 2); cloning and purification in the Supplementary Information
T2 sequence: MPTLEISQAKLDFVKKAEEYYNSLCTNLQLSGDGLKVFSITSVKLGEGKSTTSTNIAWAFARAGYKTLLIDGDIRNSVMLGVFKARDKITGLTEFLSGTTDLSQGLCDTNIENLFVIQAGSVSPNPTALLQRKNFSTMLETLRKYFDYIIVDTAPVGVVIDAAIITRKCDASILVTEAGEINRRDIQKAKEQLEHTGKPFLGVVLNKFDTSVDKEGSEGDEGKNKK
Described as above. To be noted: both partners purified.

B1: GST-SpAdK (Streptococcus pneumoniae adenylate kinase, GST-tagged) (enzyme)
chain: MNLLIMGLPGAGKGTQAAKIVEQFHVAHISTGDMFRAAMANQTEMGVLAKSYIDKGELVPDEVTNGIVKERLSQDDIKETGFLLDGYPRTIEQAHALDKTLAELGIELEGIINIEVNPDSLLERLSGRIIHRVTGETFHKVFNPPVDYKEEDYYQREDDKPETVKRRLDVNIAQGEPIIAHYRAKGLVHDIEGNQDINDVFSDIEKVLTNLK
notes: adenylate kinase of Streptococcus pneumoniae (SpAdK); also called glutathione S-transferase (GST)-SpAdK; pGST-ADK; source: recombinant, purified; plasmid pGST-ADK (E. coli plasmid pGST-parallel 2); cloning and purification in the Supplementary Information
On to B1, for which the Kd with His6-Cps2D wild-type stood at 31 ± 5 µM; in assay [1], 40 ± 17 µM.
